Results: US12371725

System: Cre recombinase (Bacteriophage P1?)
Test: cleavage_in_vitro
Conditions: 73 nM Cre, 37 C, 30 min; approximate value; ethidium bromide inhibits

pLoxFL BamHI digest (linear, two loxP sites)
activity (% recombination): 74
